Values of other authors as cited in PMC3237005.

What was measured:
[1] = target: Edema factor (EF) EFN (Bacillus anthracis) (UniProt P40136)
[2] = target: Lethal factor (LF) LFN (Bacillus anthracis) (UniProt P15917)

Substance: Protective antigen (PA63 heptamer) PA63 (from UniProt P13423)
- Kd [1]: 1 nM
- Kd [2]: 1 nM
